# Assay results reported in paper PMC12483278, “The viral BCL2 protein BHRF1 of Epstein–Barr virus promotes AIM2 inflammasome activation to facilitate lytic replication” (PLOS Pathogens, 2025).
# T1: GST-AIM2 full-length (UniProt O14862 1-343)
# T1 construct: also called GST-AIM2 WT; GST-tagged AIM2; source: HEK293T, transfected, in lysate
# T1 sequence (looked up): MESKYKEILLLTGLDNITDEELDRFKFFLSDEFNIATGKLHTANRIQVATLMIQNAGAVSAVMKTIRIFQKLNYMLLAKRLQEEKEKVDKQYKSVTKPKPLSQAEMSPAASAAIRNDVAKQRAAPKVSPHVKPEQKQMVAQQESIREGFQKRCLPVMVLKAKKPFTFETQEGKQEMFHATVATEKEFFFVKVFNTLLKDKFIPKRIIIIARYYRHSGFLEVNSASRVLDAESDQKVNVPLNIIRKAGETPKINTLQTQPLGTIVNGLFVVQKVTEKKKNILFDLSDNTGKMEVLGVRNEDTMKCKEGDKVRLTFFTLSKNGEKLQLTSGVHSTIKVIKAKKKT
# B1: GFP-BHRF1-His (natural protein)
# chain: MAYSTREILLALCIRDSRVHGNGTLHPVLELAARETPLRLSPEDTVVLRYHVLLEEIIERNSETFTETWNRFITHTEHVDLDFNSVFLEIFHRGDPSLGRALAWMAWCMHACRTLCCNQSTPYYVVDLSVRGMLEASEGLDGWIHQQGGWSTLIEDNIPGSRRFSWTLFLAGLTLSLLVICSYLFISRGRH
# notes: also called purified BHRF1 protein
# Biological target: T1, GST-AIM2 full-length
# Test: pull-down; purified GST-AIM2, Flag-ASC-His and GFP-BHRF1-His mixed and incubated in the absence or presence of purified HSV-1 dsDNA overnight at 4 °C; GST-affinity beads, western blotting
# Conditions: both partners purified
binder,measurement,value
B1,binding result,binds
